Reference: paper PMC12974149

Target: Rabbit skeletal actin, filamentous (F-actin) (rabbit) (UniProt P68135)
Experiment: fluorescence microscopy of purified drebrin on actin filaments

fraction of actin filaments heavily (>50%) decorated by drebrin: 16%
Substance: mouse drebrin isoform E (natural protein)
